B1: OR4K15 (parent)
chain: GUUAACGGUCAUAGGCCAUGGAAACUAGGAGCACCAUUUCGCUGCCAGUGAAGAAAUGAACAAAGAAAAUCUGGGCCAGGCAGGCAUCAAAAGAAAUAGUCUUGCGCUCAACCAGAAAGUCUGUAAUCAUUUUAAGGGUA

This data set covers variants of B1. Kind of data set: self-cleavage, relative activity (ratio to wild type); higher = more cleavage; in vitro, sequencing; the parent is a self-cleaving ribozyme.
On to GUUAACGGUCAUAGGCCAUGAAAACUAGGAGCACCAUUUCGCUGCCAGUGAAGAGAUGAACAAAGAAAAUCUGGGCCAGGCAGGCAUCAAAAGAAAUAGUCUUGCGCUCAACCAGAAAGUCUGUAAUCAUUUUAAGGGUA [G21A A55G], for which the self-cleavage turned out to be 1.29.

Turning to GUUAACGGUCAUAGGCCAUGGAAGCUAGGGGCACCAUUUCGCUGCCAGUGAAGAAAUGAACAAAGAAAAUCUGGGCCAGGCAGGCAUCAAAAGAAAUAGUCUUGCGCUCAACCAGAAAGUCUGUAAUCAUUUUAAGGGUA [A24G A30G], the self-cleavage is 1.01.

GUUAACGGUCAUAGGCCAUGGAAACUAGGAGCACCAUUUCGCUGCCAGUGAAGAAAUGAGCAAAGAAAAUCUGGGCCAGGCAGGCAUCAAAAGAAAUAGUCUUGCGCUCAACCAGAAUGUCUGUAAUCAUUUUAAGGGUA [A60G A118U]: the self-cleavage was 0.79.

Regarding GUUAACGGUCAUAGGCCAUGGAAACUAGGAGCACCAUUUCGCUGCCAGUGAAGAAAUUAACAAAGAAAAUCUGGGCCAGGCAGGCAUCAAAAGAAAUAGUCUUGCGCUCGACCAGAAAGUCUGUAAUCAUUUUAAGGGUA [G58U A110G], the self-cleavage is 0.11.

As to GUUAACGGUCAUAGGCCAUGGAAACUAGGAGCACCAUUUCGCUGCCAGUGAAGAAAUGAACAAAGAAAAUCUGGGCCAGGCAGGCAUCAAAAGAAAUAGUCUUGCGCUCAACCUGAAAGUCUGUAAUCAUUUUAAGGGAA [A114U U139A], the self-cleavage came to 0.07.

On to GUUAACGGUCAUAGGCCAUGGAAACUAGGAGCACCAUUUCGCUGCCAGUGAAGAAAUGAACAACGAAAAUCUGGGCCAGGCAGGCAUCAAAAGAAAUAGUCUUGCGCUCAACCAGAAAGUCUGUAAUCAUUUUAAGGGUU [A64C A140U], for which the self-cleavage worked out at 1.86.

In the case of GUUAACGGUCAUAGGCCAUGGAAACUAGGAGCACCAUUUCGCUGCCAGUGAAGAAAUGAACAAAGAAAAUCUGGGCCAGGCAGGCAUCAAAAGAAAUAGUCUUGCACUCAGCCAGAAAGUCUGUAAUCAUUUUAAGGGUA [G106A A111G], the self-cleavage was 0.01.

On to GUUAACGGUCAUAGGGCAUGGAAACUAGGAGCACCAUUUCGCUGCCAGUGAAGAAAUGAACAAAGAAAAUCUGGGCCAGGCAGGCAUCGAAAGAAAUAGUCUUGCGCUCAACCAGAAAGUCUGUAAUCAUUUUAAGGGUA [C16G A89G], for which the self-cleavage was determined as 0.74.

GAUAGCGGUCAUAGGCCAUGGAAACUAGGAGCACCAUUUCGCUGCCAGUGAAGAAAUGAACAAAGAAAAUCUGGGCCAGGCAGGCAUCAAAAGAAAUAGUCUUGCGCUCAACCAGAAAGUCUGUAAUCAUUUUAAGGGUA [U2A A5G]: the self-cleavage stood at 1.24.

As to GUUAACGGUCGUAGGCCAUGGAAACUAGGAGCACCAUUUCGCUGCCAGUGAAGAAAUGAACAAAGAAAAUCUGGGCCAGGCAGGAAUCAAAAGAAAUAGUCUUGCGCUCAACCAGAAAGUCUGUAAUCAUUUUAAGGGUA [A11G C85A], the self-cleavage stood at 1.53.

For the variant GUUAACGGUCAUAGGCCAUGGAAACUAGGAGCACCAUUUCGCUGCCAGUGAAGUAAUGAACAAAGAAAAUCUGGGCCAGGCCGGCAUCAAAAGAAAUAGUCUUGCGCUCAACCAGAAAGUCUGUAAUCAUUUUAAGGGUA [A54U A82C], the self-cleavage stood at 0.13.

In the case of GUUAACGGUCAUAGGCCAUGGAAACUAGGAGCACCAUUUCGCUGCCAGUGAAGAAAUGAUCAAAGAAAAUCUGGGCCAGGCAGGCAUCAAAAGAAAUAGUCUUGCGCUCAACCAGAGAGUCUGUAAUCAUUUUAAGGGUA [A60U A117G], the self-cleavage amounted to 1.84.

GUUAACGGUCAUAGGCCAUGGAAACUAGGAGCACCAUUUCGCUGCCAGUGAAGAAAUGAACAAAGUAAAUCUGGGCCAGGCAGGCAUCAAAAGAAAUAGUCUUGCGCUCGACCAGAAAGUCUGUAAUCAUUUUAAGGGUA [A66U A110G]: the self-cleavage is 0.14.

Take GUUAACGGUCAUAGGUCAUGGAAACUAGGAGCACCAUUUCGCUGCCAGUGAAGAAAUGAACAAAGAAAAUCUGGGCCGGGCAGGCAUCAAAAGAAAUAGUCUUGCGCUCAACCAGAAAGUCUGUAAUCAUUUUAAGGGUA [C16U A78G]: the self-cleavage is 0.62.

In the case of GUUAACGGUCAUAGGCCAUGGAAACUAGGAGCACCAUUUCGCUGCCAGUGAAGAAAUGAACAAAGAAAAUCUGGGCCAGGCAGGCAUCAAAAGAAAUAGUCUUGCGCUCAACCAGAAAGUCUGUAAUCAUUUUUUGGGUA [A134U A135U], the self-cleavage worked out at 1.42.

Take GUUAACGGUCAUAGGCCAUGGAAACUAGAAGCAUCAUUUCGCUGCCAGUGAAGAAAUGAACAAAGAAAAUCUGGGCCAGGCAGGCAUCAAAAGAAAUAGUCUUGCGCUCAACCAGAAAGUCUGUAAUCAUUUUAAGGGUA [G29A C34U]: the self-cleavage turned out to be 1.67.

Regarding GUUAACGGUCAUAGGCCAUGGAAACUAGGAGCACCAUUUCGCUGCCAGUGAAGAAAUGUACAAAGAAAAUCUGGGCCAGGCAGGCAUCAAGAGAAAUAGUCUUGCGCUCAACCAGAAAGUCUGUAAUCAUUUUAAGGGUA [A59U A91G], the self-cleavage amounted to 0.79.

For the variant GUUAACGGUCAUAGGCCAUGGAAACUAGGAGCACCAUUUCGCUGCCAGUUAAGAAAUGAACAAAGAAAAUCUGGGCCAGGCAGGCAUCAAAAGAAAUAGUCUUGCGCUCAACCAGAAAGCCUGUAAUCAUUUUAAGGGUA [G50U U120C], the self-cleavage was 1.29.

Consider GUUAACGGUCAUAGGCCAUGGAAACUAGGAGCACCAUUACGCUGCCAGUGAAGAAAUGAACAAAGAAAAUCUGGGCCAGGCAGGCAUCAAAAGAAAUAGUCUUGCGCUCGACCAGAAAGUCUGUAAUCAUUUUAAGGGUA [U39A A110G], for which the self-cleavage amounted to 0.04.

For the variant GUUAACGGUCAUAGGCCAUGGAAACUAGGAGCACCAUUUCGCUGCCAGUGAAGAAAUGAACAAAGAAAAUCUGGGCCAGGCAGGCAUCAAAAGAAAUAGUCUUGCGCUCAACCAGAAAGUCUGGAAUCAUUUUAAGGGUA [U124G], the self-cleavage worked out at 0.98.

The values are drawn from the RNAGym collection of RNA variant scans (doi:10.7554/elife.90254).
